{
  "source": "paper doi:10.1101/2021.12.21.473719",
  "about": "(bioRxiv, 2021)",
  "biological_target": "T1, POPDC1-Myc (Popeye domain-containing protein 1, Myc-tagged) (mouse, UniProt Q9ES83 1-358)",
  "T1 sequence (looked up)": "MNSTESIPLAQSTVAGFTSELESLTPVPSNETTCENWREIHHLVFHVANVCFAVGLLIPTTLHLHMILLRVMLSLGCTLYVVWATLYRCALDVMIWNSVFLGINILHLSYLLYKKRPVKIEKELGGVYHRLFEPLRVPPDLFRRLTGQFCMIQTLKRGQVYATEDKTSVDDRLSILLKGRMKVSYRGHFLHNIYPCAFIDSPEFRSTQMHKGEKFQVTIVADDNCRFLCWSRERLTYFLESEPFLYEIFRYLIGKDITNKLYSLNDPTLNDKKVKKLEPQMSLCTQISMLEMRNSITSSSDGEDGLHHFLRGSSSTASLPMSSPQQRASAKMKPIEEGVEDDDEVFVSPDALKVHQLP",
  "assay": "co-IP",
  "data": [
    {"binder": "AC1 (adenylyl cyclase type 1), non-tagged (enzyme) not shown", "values": [
      {"measurement": "fold Ca2+/calmodulin-stimulated AC activity over IgG controls", "result": 1.59, "unit": "fold"}
    ]}
  ]
}
